# Reference: US20210301000A1
# Numbering of substitutions follows the chain as printed.
# B1: recombinant anti-dengue virus NS1 11E2 antibody (WT) (antibody, mouse IgG2a, kappa, V domains shown)
# VH: QVQLQQSGAELVRPGTSVKISCKASGYSFTDYWIGWVKQRPGHGLEWIGDMVPGDLYINYQEKFKGKATLTADTSSNTAYMQLSSLTSEDSAVYFCTNFITVGGLDYWGRGTSLTVSS
# VL: DVVMTQTPLTLSVTIGQPASISCKSSNSLLDSDGKTYLNWLLQRPGQSPKRLIYLVTKIDSGVPDRFTGSGSVTDFTLKISRVESEDLGVYYCWWGTHFPHTFGAGTKLEVKR
# B2: Mutation 3 (antibody, V domains shown)
# VH: B1 VH with S28T, V52W
# VL: B1 VL with N27Q, D31S, K35R, I59V, W95Q, P100F
# B3: Mutation 1-25 (antibody, V domains shown)
# VH: B1 VH with S28T, D31E, V52F, L56V, I100L, V102L
# VL: B1 VL with K35R, T57S, W95Y
# B4: Mutation 1-28 (antibody, V domains shown)
# VH: B1 VH with S28T, V52F, L56I, Q61N, V102L, L105I
# VL: B1 VL with K35R, T57S, W95Y
# B5: Mutation 1-40 (antibody, V domains shown)
# VH: B1 VH with S28T, V52F, L56V, V102L, L105I
# VL: B1 VL with K35R, T57S, W95Y
# B6: Mutation 1-46 (antibody, V domains shown)
# VH: B1 VH with S28T, D31E, V52F, L56I, Q61N, V102L, L105I
# VL: B1 VL with K35R, T57S, I59V, W95Y
# B7: WT 1-1 (antibody, V domains shown)
# VH: B1 VH with D31E, Q61N, L105V
# VL: B1 VL with N27Q, D31E, W95Y, P100A
# B8: WT 1-4 (antibody, V domains shown)
# VH: B1 VH with L56I, I100L, L105V
# VL: B1 VL with N27Q, D31E, K35R, W95Y, P100A
# B9: WT 1-7 (antibody, V domains shown)
# VH: B1 VH with D31E, L105V
# VL: B1 VL with N27Q, D31E, W95Y, P100A
# B10: WT 1-20 (antibody, V domains shown)
# VH: B1 VH with L56I
# VL: B1 VL with N27Q, D31E, K35R, I59L, P100A
# B11: WT 1-30 (antibody, V domains shown)
# VH: B1 VH with D31E, Q61N, I100L, L105V
# VL: B1 VL with D31E, P100A
# B12: Mutation 1-19 (antibody, V domains shown)
# VH: B1 VH with S28T, D31E, V52F, L56I, Q61N, V102L, L105I
# VL: B1 VL with K35R, T57S, W95Y
# Target: (DN-(I+II+III+IV)-NS) antigen (self-produced, expressed in insects) (dengue virus)
# Assay: capture ELISA, antibody at 37.037 ng/ml
row,Binder,OD450 (ref 630)
1,B1,1.66 OD

# Target: (DN-(I+II+III+IV)-NS) antigen (self-produced, expressed in insects) (dengue virus)
# Assay: capture ELISA, antibody at 4.115 ng/ml
row,Binder,OD450 (ref 630)
1,B1,0.448 OD

# Target: (DN-(I+II+III+IV)-NS) antigen (self-produced, expressed in insects) (dengue virus)
# Assay: capture ELISA, antibody at 1.372 ng/ml
row,Binder,OD450 (ref 630)
1,B1,0.297 OD

# Target: (DN-(I+II+III+IV)-NS) antigen (self-produced, expressed in insects) (dengue virus)
# Assay: capture ELISA, antibody at 1000 ng/ml
row,Binder,OD450 (ref 630)
1,B2,0.847 OD
2,B1,2.32 OD

# Target: (DN-(I+II+III+IV)-NS) antigen (self-produced, expressed in insects) (dengue virus)
# Assay: capture ELISA, antibody at 333.333 ng/ml
row,Binder,OD450 (ref 630)
1,B2,0.347 OD
2,B1,2.38 OD

# Target: (DN-(I+II+III+IV)-NS) antigen (self-produced, expressed in insects) (dengue virus)
# Assay: capture ELISA, antibody at 111.111 ng/ml
row,Binder,OD450 (ref 630)
1,B2,0.056 OD
2,B1,2.2 OD

# Target: DN quality control product recombinant protein (a recombinant antigen produced by the company itself) (dengue virus)
# Assay: AMO sensor, antibody on sensor, antigen in solution
Binder,Kd,koff,kon
B3,6.04 nM,0.000273 s⁻¹,45100 M⁻¹ s⁻¹
B4,6.59 nM,0.000337 s⁻¹,51200 M⁻¹ s⁻¹
B1,58.8 nM,0.000398 s⁻¹,6770 M⁻¹ s⁻¹
B5,4.05 nM,0.000171 s⁻¹,42300 M⁻¹ s⁻¹
B6,8 nM,0.000479 s⁻¹,59900 M⁻¹ s⁻¹
B7,12.8 nM,5.86e-05 s⁻¹,4570 M⁻¹ s⁻¹
B8,28 nM,0.000142 s⁻¹,5080 M⁻¹ s⁻¹
B9,65.5 nM,0.000231 s⁻¹,3530 M⁻¹ s⁻¹
B10,45.9 nM,0.000143 s⁻¹,3120 M⁻¹ s⁻¹
B11,20.4 nM,0.000149 s⁻¹,7280 M⁻¹ s⁻¹
B12,4.72 nM,0.000279 s⁻¹,59200 M⁻¹ s⁻¹

# Target: (DN-(I+II+III+IV)-NS) antigen (self-produced, expressed in insects) (dengue virus)
# Assay: capture ELISA, antibody at 0 ng/ml (blank)
row,Binder,OD450 (ref 630)
1,B1,0.163 OD

# Target: (DN-(I+II+III+IV)-NS) antigen (self-produced, expressed in insects) (dengue virus)
# Assay: capture ELISA, antibody at 12.346 ng/ml
row,Binder,OD450 (ref 630)
1,B1,0.838 OD
